What was measured:
Assay in all cases: pull-down binding Z-score (relative to library population); higher = stronger binding
[1] = system: G-clamp-N3 (biotin conjugate); conditions: RNA library: Library-1 (pre-miRNA loops + repeats)
Summary of the method: (§1)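 To score binding, a beads-only signal was subtracted, barcoded replicate probes were averaged with the highest and lowest dropped, and the value was converted to a Z-score using the library mean and standard deviation. The input was 1 μg of Cy5- or Cy3-end-labelled RNA library, heat-folded in phosphate/NaCl/KCl buffer and mixed for 60 min at 25 °C with streptavidin beads carrying 100 pmol of biotin-conjugated small molecule. Bound RNA was eluted in hot SDS and hybridised to a DNA barcode microarray at 55.5 °C for 20 h.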

[2] = system: TO-3-N3 (biotin conjugate); conditions: RNA library: Library-2
Summary of the method: as §1

[3] = system: TO-3-N3-2 (biotin conjugate); conditions: RNA library: Library-2
Summary of the method: as §1

TO-N3 (biotin conjugate) = conditions: RNA library: Library-2
Summary of the method: as §1

[4] = system: TO-N3-2 (biotin conjugate); conditions: RNA library: Library-2
Summary of the method: as §1

| Sequence | pull-down binding Z-score [1] | pull-down binding Z-score [2] | pull-down binding Z-score [3] | pull-down binding Z-score (TO-N3 (biotin conjugate)) | pull-down binding Z-score [4] |
| --- | --- | --- | --- | --- | --- |
| GAAUGAAAAAAUGAAUCAUC [hsa-mir-421] | 0.509 | -0.311 | 0.0689 | -0.29 | -0.0724 |
| GAAUUCGAUUCAUCAAAGCGAGUC [hsa-mir-485] | -0.234 | -0.128 | 0.143 | 0.0539 | 0.225 |
| GAAUUCGCUUUAUUUAUGUUGAAUC [hsa-mir-377] | -0.856 | -0.514 | -0.33 | -0.944 | -0.874 |
| GACAAUAUGUAUAAUGUUCAUAAGUCAUUC [hsa-mir-384] | 0.231 | 0.197 | 0.227 | 0.444 | -0.0426 |
| GACACCUGGAUUCAGAGAACAUGUC [hsa-mir-1276] | -0.716 | -0.322 | -0.0538 | -0.156 | 0.137 |
| GACACUUUCACUAUAUAUAGUGGC [hsa-mir-3156-3] | -0.25 | -0.049 | -0.0836 | -0.354 | -0.533 |
| GACAGGCUGGCCUCUGGAUGACCUGC [hsa-mir-5189] | 0.679 | 1.18 | -0.186 | 1.4 | 1.37 |
| GACAGGGAAAAGCACACAAGGAACUUGUC [hsa-mir-3909] | 0.557 | -0.138 | 0.112 | -0.0969 | -0.0273 |
| GACAGGGCAGAGGGUUGCGCCCCCUC [hsa-mir-6511b-1_6511b-2_6511a-2_6511a-3_6511a-1_6511a-4] | 1.05 | 0.412 | 0.284 | 0.754 | 1.23 |
| GACAUCCCUCAUCUGUUUCUCACUGGUGUC [hsa-mir-6830] | -0.521 | 0.191 | 0.244 | -0.0985 | -0.507 |
| GACAUCUGGGCCAACUCUGAUCUC [hsa-mir-6515] | -1.32 | -0.163 | -0.126 | 0.113 | 0.777 |
| GACAUGCUCUGACUCCCCUGAUGUC [hsa-mir-6852] | 0.588 | -0.0796 | 0.244 | 0.286 | 1.18 |
| GACCAAAAGUCAACAUUAAACAACAAAUCUUGGCC [hsa-mir-5708] | -1.3 | -0.733 | -0.109 | -1.02 | -0.998 |
| GACCCCCAUGCACCCCUGUGGGCCCCUGGCAUC [hsa-mir-1257] | -1.71 | 0.219 | -0.0626 | 0.727 | 1.21 |
| GACCGUUGGCAUCUUAAUUACCCUC [hsa-mir-532] | -0.675 | -0.448 | -0.339 | -0.233 | 0.318 |
| GACCUGGAUGUGUAGGAGCUAAGACACACUCCAGGGG [hsa-mir-920] | 1.89 | 0.595 | 0.531 | 0.902 | 1.41 |
| GACGAUUUGAAUUAAUAAAUUC [hsa-mir-579] | 0.799 | 0.329 | 0.0871 | 0.153 | -0.419 |
| GACGGCGCCCGCCCUGGCCCUGGC [hsa-mir-4745] | 0.486 | 0.678 | 0.0825 | 1.16 | 1.96 |

— the supplement of paper PMC11865577
